Bounds are passed on as bounds.

The data set addresses T1, BMC04 (uncultured bacterium (metagenome)).
T1 chain: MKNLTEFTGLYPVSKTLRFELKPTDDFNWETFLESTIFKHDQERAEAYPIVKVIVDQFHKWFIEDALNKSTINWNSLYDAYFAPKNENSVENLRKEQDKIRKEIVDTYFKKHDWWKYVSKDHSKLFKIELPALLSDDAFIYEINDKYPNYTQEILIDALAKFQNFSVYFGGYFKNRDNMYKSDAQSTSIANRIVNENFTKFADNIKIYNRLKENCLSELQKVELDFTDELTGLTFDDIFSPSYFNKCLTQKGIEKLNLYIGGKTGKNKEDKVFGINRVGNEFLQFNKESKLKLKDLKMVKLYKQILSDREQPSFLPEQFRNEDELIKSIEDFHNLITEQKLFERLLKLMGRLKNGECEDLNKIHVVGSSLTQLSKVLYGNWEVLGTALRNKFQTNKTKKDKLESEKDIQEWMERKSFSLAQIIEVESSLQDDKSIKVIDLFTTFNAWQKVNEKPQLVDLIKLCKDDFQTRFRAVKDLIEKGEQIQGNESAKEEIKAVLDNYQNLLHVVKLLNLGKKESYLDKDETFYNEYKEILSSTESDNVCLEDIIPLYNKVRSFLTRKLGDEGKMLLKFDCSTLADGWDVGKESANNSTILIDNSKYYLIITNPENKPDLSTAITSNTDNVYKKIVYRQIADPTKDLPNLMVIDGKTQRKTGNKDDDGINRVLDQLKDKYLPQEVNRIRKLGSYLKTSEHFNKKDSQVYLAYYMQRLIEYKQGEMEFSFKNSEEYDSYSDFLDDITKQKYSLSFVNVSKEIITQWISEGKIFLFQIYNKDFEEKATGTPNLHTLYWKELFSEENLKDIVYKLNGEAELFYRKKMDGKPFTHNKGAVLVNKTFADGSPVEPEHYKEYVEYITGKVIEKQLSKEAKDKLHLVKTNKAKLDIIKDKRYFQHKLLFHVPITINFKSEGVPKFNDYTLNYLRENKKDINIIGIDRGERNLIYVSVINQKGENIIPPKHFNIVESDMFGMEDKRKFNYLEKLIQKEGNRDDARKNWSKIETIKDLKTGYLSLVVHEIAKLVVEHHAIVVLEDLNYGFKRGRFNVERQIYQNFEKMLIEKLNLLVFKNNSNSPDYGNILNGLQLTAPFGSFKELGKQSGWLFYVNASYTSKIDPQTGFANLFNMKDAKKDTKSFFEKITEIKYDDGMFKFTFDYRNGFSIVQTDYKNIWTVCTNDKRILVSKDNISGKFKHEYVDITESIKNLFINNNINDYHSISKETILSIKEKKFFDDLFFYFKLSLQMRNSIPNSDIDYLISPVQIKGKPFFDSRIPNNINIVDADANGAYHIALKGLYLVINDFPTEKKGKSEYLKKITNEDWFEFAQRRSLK
Put plainly: cell_activity; PAM not stated; E. coli depletion, 30 C. The procedure:
Overnight grown pre-cultures were diluted into fresh 60 ml LB-Kanamycin (25 μg/ml) (Example 4) or LB-Kanamycin (25μg/ml)/Nourseothricin (50 μg/ml) medium (Example 5) to obtain an optical density at 600 nm (OD600) of 0.06. The inoculated medium was incubated at 30° C. on a horizontal shaker at 250 rpm until the culture reached an optical density at OD600 of 0.2. For induced BMC (NN) nuclease expression, 600 μl 20% L-(+)-arabinose (w/v) was added to the culture at a final concentration of 0.2% (v/v). The cultivation was continued until the culture reached an optical density at OD600 of 0.5. Subsequently 50 ml culture was transferred into one 50 ml conical tube and harvested by centrifugation at 4° C. for 5 min and 4000×g. Pelleted cells were resuspended in 50 ml ultrapure water (ice-cold) and centrifuged at 4° C. for 5 min and 4000×g.
This washing procedure was repeated twice. Washed cells were resuspended in 25 ml 10% (w/w) glycerin and re-centrifuged at 4° C. for 5 min and 4000×g. The pelleted cells were resuspended in 5 ml 10% (w/w) glycerin. After the final centrifugation step at 4° C. for 5 min and 4000×g, the cells were resuspended in 125 μl 10% (w/w) glycerin. Aliquots of 25 μl competent cells were stored at −80° C. until use. For the transformation procedure, aliquots of competent cells were thawed on ice and 50-100 ng plasmid DNA (CRISPR/gRNA-Ec) was added. Prepared cells were electroporated at 1800 V, 25 μF and 200 Ω in 1 mm gap size electroporation cuvettes, using the Bio-Rad Gene Pulser Xcell Electroporation System. Subsequently, 975 μL of NEB® 10-beta/Stable Outgrowth Medium was added immediately after the pulse to the transformed cells. Regeneration was done at 30° C. on a horizontal shaker at 250 rpm. Finally, 25-100 μl of the cell suspension was plated onto selective M9-Glucose agar plates supplemented with Kanamycin (25 μg/ml)/Ampicillin (100 μg/ml) (Example 4) or Kanamycin (25 μg/ml)/Ampicillin (100 μg/ml)/Nourseothrin (50 μg/ml) (Example 5). Growth of transformed E. coli cells on selective agar plates was screened for 48 h at 30° C.
As described above, each of the BMC01, BMC02, BMC03, BMC04, BMC05, BMC07, BMC08, BMC09, BMC10, BMC11, BMC12, BMC13, BMC14, or BMC15 nucleases was co-transformed into E. coli with a gRNA targeting the E. coli malQ gene to visualize a) the activity and b) the DNA targeting efficiency of the BMC nucleases.

B1: malQ gRNA (BMC stem-loop + 24 nt spacer) ; malQ protospacer (ssRNA ; dsDNA)
RNA: GAUUUCUACUAUUGUAGAUGUGGCGGUACGUUGAUGCAUCGCG
DNA 1: GTGGCGGTACGTTGATGCATCGCG
DNA 2: CGCGATGCATCAACGTACCGCCAC
In the case of B1, the activity was more than 99.9 % colony reduction.

Source of the values: US20250277199, “NOVEL CRISPR-CAS NUCLEASES FROM METAGENOMES” (Brain Biotech AG, published 2025).
